Laboratory results: patent US20070027086A1 (ACTION PHARMA A S, published 2007)
Square brackets hold non-standard residues; d marks the D form. Ends that are not written are not given here.

B1: MS09 (Ser-Ser-Ile-Ile-Ser-His-dPhe-Arg-Trp-Gly-Lys-Pro-Val-NH2) (peptide)
peptide: SSIISH[dF]RWGKPV-NH2
modifications: N-terminus assumed
SMILES: CC[C@H](C)[C@H](NC(=O)[C@H](CO)NC(=O)[C@@H](N)CO)C(=O)N[C@H](C(=O)N[C@@H](CO)C(=O)N[C@@H](Cc1c[nH]cn1)C(=O)N[C@H](Cc1ccccc1)C(=O)N[C@@H](CCCNC(=N)N)C(=O)N[C@@H](Cc1c[nH]c2ccccc12)C(=O)NCC(=O)N[C@@H](CCCCN)C(=O)N1CCC[C@H]1C(=O)N[C@H](C(N)=O)C(C)C)[C@@H](C)CC
notes: Synthetic 13-residue peptide amide; also called MSO9
B2: MS05 (Ser-Ser-Ile-Ile-Ser-His-Phe-Arg-Trp-Gly-Lys-Pro-Val-NH2) (peptide)
peptide: SSIISHFRWGKPV-NH2
modifications: also: trifluoroacetate salt
notes: Synthetic 13-residue peptide amide, obtained as the trifluoroacetate salt; also called MSO5; compound (3)

Key:
human MC5-receptor = biological target: T1, human MC5-receptor (human, UniProt P33032 1-325); test: competition with [^125I]NDP-MSH on COS cells expressing human MC5 receptor; Ki by Cheng-Prusoff
T1 construct: whole, on cells
T1 sequence (P33032 whole entry): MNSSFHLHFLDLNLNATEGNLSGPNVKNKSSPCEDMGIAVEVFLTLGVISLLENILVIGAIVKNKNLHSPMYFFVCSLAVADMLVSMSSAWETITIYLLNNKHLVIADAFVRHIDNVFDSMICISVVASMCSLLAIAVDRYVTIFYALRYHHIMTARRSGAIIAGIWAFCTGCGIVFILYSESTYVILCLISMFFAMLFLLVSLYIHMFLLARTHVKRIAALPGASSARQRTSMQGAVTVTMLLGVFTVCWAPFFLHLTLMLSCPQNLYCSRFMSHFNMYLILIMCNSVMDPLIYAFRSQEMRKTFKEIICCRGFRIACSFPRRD
Description: (§1) Expression of receptor clones. Human MC1- and MC5-receptor DNAs (Chhajlani and Wikberg 1992; Chhajlani et al., 1993), cloned into the expression vector pRc/CMV (InVitrogen Corp., USA), and human MC3- and human MC4-receptor DNAs (Gantz et al., 1993a & b), cloned into the expression vector pCMV/neo, were used. COS cells were grown and transfected with receptor clones as described (Schiöbth et al. 1995, 1996b). After transfection cells were cultivated for 48 h, detached from the Petri dishes, and used for radioligand binding as described (Schiöth et al. 1995, 1996b).
(§2) Binding studies. […] The competition data were analyzed by fitting it to the logistic function using non-linear regression analysis. The Kᵢ-values were then calculated from the thus obtained IC50-values by using the Cheng and Prusoff equation, essentially as described by Schiöth et al. 1995, 1996b.

[1] = biological target: T2, native mouse MC1-receptor (MSH-receptor of mouse B16 melanoma cells and of mouse RAW 264.7 cells) (mouse, UniProt Q01727 1-315); test: competition with 0.2 nM [^125I]NDP-MSH on mouse B16-F1 melanoma cells (native mouse MC1 receptor)
T2 construct: whole, on cells; also called B16 melanoma cell MSH-receptor
T2 sequence (Q01727 whole entry): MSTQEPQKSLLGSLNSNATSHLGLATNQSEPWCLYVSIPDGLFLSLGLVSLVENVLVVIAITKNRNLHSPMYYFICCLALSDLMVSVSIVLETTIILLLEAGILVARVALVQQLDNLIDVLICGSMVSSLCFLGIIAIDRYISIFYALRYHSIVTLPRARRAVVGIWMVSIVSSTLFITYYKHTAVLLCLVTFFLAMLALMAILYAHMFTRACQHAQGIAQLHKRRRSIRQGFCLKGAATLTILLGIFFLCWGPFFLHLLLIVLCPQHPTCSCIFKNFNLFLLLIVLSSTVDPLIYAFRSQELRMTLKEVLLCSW
Description: Assays for MSH-receptor binding was done essentially as described (Xia et al., Cancer Letters, 1996, 98, 157-162), in principle according to earlier described methods (Eberle et al., J. Recept. Res. 1991, 11, 311-322). In brief, collected cells were washed with binding buffer (for composition of binding buffer see below) distributed into 96 well plates and sedimented onto the well bottoms by centrifugation. […] After incubation the plates were put on ice, centrifuged and the cells washed with 0.1 ml of ice-cold binding buffer, centrifuged and the binding buffer was sucked off. The finally sedimented and washed cells were then detached from the plates with 0.2 ml of 0.1 N NaOH. Radioactivity was counted by using a Wallac, Wizard automatic gamma counter. The competition data were analysed by law of massaction computer modelling essentially as described (Bergstrom & Wikberg, Acta Pharmacol. Toxicol. 1986, 59, 270-278).

human MC3-receptor [2] = biological target: T3, human MC3-receptor (human, UniProt P41968 1-323); test: competition with [^125I]NDP-MSH on COS cells expressing human MC3 receptor; Ki by Cheng-Prusoff
T3 construct: whole, on cells
T3 sequence (P41968 whole entry): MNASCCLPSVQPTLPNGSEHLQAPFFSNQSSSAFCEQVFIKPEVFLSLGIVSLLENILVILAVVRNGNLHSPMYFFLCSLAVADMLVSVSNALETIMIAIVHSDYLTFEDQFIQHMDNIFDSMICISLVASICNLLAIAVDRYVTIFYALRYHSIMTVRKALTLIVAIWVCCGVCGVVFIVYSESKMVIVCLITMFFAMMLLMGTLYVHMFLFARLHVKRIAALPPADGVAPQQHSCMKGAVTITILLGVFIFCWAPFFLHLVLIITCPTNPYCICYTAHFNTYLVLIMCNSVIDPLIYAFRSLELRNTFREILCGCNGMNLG
Description: as §1, §2

human MC4-receptor = biological target: T4, human MC4-receptor (human, UniProt P32245 1-332); test: competition with [^125I]NDP-MSH on COS cells expressing human MC4 receptor; Ki by Cheng-Prusoff
T4 construct: whole, on cells
T4 sequence (P32245 whole entry): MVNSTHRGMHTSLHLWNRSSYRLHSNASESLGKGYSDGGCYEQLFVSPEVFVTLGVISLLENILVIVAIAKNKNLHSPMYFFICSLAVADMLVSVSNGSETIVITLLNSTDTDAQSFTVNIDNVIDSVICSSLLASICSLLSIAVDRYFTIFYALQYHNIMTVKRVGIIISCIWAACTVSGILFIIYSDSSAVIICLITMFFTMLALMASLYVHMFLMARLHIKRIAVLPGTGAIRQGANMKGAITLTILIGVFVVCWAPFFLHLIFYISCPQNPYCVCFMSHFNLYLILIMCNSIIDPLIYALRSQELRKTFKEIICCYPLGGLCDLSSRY
Description: as §1, §2

[3] = biological target: T5, human MC1-receptor (melanocortin 1 receptor) (human, UniProt Q01726 1-317); test: cell-based or functional assay
T5 sequence (Q01726 whole entry): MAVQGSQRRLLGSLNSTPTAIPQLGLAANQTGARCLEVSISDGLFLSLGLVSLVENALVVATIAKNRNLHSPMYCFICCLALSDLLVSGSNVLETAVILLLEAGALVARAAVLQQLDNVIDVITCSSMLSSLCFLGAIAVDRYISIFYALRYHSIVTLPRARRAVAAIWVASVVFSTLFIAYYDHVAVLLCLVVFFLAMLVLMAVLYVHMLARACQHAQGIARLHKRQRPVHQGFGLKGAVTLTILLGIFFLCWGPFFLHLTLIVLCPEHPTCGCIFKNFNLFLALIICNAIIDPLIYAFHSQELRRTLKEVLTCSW

[4] = biological target: T5, human MC1-receptor (melanocortin 1 …); test: competition with [^125I]NDP-MSH on COS cells expressing human MC1 receptor; Ki by Cheng-Prusoff
Description: as §1, §2

human MC3-receptor [5] = biological target: T3, human MC3-receptor; test: ratio of Ki values, competition with [^125I]NDP-MSH on COS-1 cells expressing human MC receptors
Description: as §1, §2

[6] = biological target: T2, native mouse MC1-receptor (MSH-receptor …); test: competition with 0.1 nM [^125I]NDP-MSH on mouse RAW 264.7 macrophage cells (native mouse MC1 receptor)
Description: MSH-receptor binding was done essentially as described (Xia et al., Cancer Letters, 1996, 98, 157-162), in principle according to earlier described methods (Eberle et al., J. Recept Res. 1991, 11, 311-322). In brief, the collected cells were washed, distributed into 96 well plates and sedimented onto the well bottoms by centrifugation. […] Radioactivity was counted by using a Wallac, Wizard automatic gamma counter. The competition data were analysed by law of massaction computer modelling essentially as described (Bergstrom & Wikberg, Acta Pharmacol. Toxicol. 1986, 59, 270278).

Row | Binder | Ki (human MC5-receptor) [nM] | Ki [1] [nM] | Ki (human MC3-receptor [2]) [nM] | Ki (human MC4-receptor) [nM] | % of 10 nM α-MSH (cAMP stimulation, 10 nM) [3] [%] | Fold stimulation of cAMP (10 nM) [3] [fold] | Fold stimulation of cAMP (1 µM) [3] [fold] | Ki [4] [nM] | fold lower affinity than for the MC1-receptor (human MC3-receptor [5]) [fold] | Ki [6] [nM]
1 | B1 | 120 | 0.06 | 7 | 40 | 89 | 5.5 | 7 | 0.2 | – | –
2 | B2 | – | 1 | 1360 | – | 69 | 4.6 | 6.7 | 0.76 | 1800 | 1.35
